Data: PMC11417388, “Trypanosome mRNA recapping is triggered by hypermethylation originating from cap 4” (Nucleic Acids Research, 2024)

B1: TbCe1 (Trypanosoma brucei brucei TREU927) (protein)
chain: MSATDVASELRSGAPEYVPTFLRCKQSENVTAFESPVVFLMFGCRGAGKSTQSTLLSKTYNLLYLSSGDIYKSGKQPFVELRKILNEHFGDGKERVYNGVVLDRFIANSEFEAFYVQTALRSVGLPVPFVFMLAIDQGLAAKRAEERGDNKGGNQRWRAVEQKAQAITANTVYAPIQCLKTIRVESDMTIDDVFNEIKTTIANQLPPDLFNLQLPREARREVEGTVLVEDYELYMELANDVHTVVGNLRGRRDSAPLSNVGAHLDKEYFSFANKRLRSQLTTMHVTLKADGLRFLVMKHKTRGYIGFPSAFTHCYELNDLFEGVEMAPKPYTELKKWMNDKSCELPADFLLDTEVVVHEKKPTLYIIDFIYFWGLDGRRMQFEQRLKVLREYFGDMKPQGQVIAMKDYVPINKIRTLVEEMKRRTELPVDGLIFQHNGSYRFGSDKFLIKWKPVHLCTVDFRLANGRVENGVWTFDLFVTDDFIEENGFREVAYPGATALIPASVVEENGLQNGMIIEMALSEKESVKKTSPNAPSEKTRWTFRNARNDKPSPNKYSIVTRICELMHVDLDELVSLCEKVPFYRNV
notes: expressed as His-Smt3 fusion in E. coli; tag removed by Ulp1; glycerol gradient purified

Tests used:
vvD1/D12 = molecular target: T1, vvD1/D12 (Vaccinia virus WR, UniProt P04298)
T1 construct: gene OPG113

purified protein = substrate: Nc1ncnc2c1ncn2[C@@H]1O[C@H](COP(=O)(O)OP(=O)(O)OP(=O)(O)O)[C@@H](O)[C@H]1O; test: purified protein; assay type: biochemical, Trypanosoma brucei; conditions: co-substrate 100 nM fully methylated cap 4 pRNA (p m6,2AmAmCm m3Um), 0.5 mM MgCl2, pH 8.5, 27 °C, labelled compound

| Molecule | cap methyltransferase assay on ppRNA substrates (vvD1/D12) | Km (purified protein) [µM] | kcat (purified protein) [s⁻¹] |
| --- | --- | --- | --- |
| C[S+](CC[C@H](N)C(=O)O)C[C@H]1O[C@@H](n2cnc3c(N)ncnc32)[C@H](O)[C@@H]1O (stereo partly drawn) [AdoMet] | cap methyltransferase activity was compared on ppAmAmCmUm and unmodified ppRNAs |  |  |
| B1 |  | 0.21 | 0.0383 |
